Laboratory results as given in US20250084177A1 (HUAHUI HEALTH, published 2025).

Experiments:
[1] = biological target: T1, mouse CD98 (mCD98) ECD (mouse, UniProt P10852 100-526); experiment: SPR (Biacore T200), antibody captured, mouse CD98 ECD as analyte, 1:1 Langmuir model
T1 construct: extracellular domain; By the methods the CD98 ECDs were His6-Avi-tagged; also called murine CD98
T1 sequence (looked up): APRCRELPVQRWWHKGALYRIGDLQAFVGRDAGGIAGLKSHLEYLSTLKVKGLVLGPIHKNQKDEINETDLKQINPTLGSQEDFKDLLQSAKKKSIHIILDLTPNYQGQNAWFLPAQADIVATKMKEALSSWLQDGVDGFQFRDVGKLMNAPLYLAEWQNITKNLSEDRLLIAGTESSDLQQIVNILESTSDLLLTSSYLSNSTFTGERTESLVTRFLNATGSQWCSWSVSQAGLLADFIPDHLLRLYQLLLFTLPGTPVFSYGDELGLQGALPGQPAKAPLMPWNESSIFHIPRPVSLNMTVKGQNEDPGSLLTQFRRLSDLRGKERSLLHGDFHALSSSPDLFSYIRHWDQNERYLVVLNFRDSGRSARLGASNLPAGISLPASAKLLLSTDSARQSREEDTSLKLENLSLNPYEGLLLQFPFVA
Method: (§1) Kinetic analysis of the bindings of anti-CD98 antibodies to the ECD of CD98, and the ECD of FcγRs were performed on a Biacore T200 instrument (Biacore, GE Healthcare). Anti-hFc Ab or protein A/G (Thermo Fisher Scientific) was covalently attached to the surface of a CM5 sensor chip using an amine coupling kit (GE Healthcare). Antibodies at optimal concentrations were captured on the chip and the analytes (CD98 or FcγRs) were then injected at 2-fold serial diluted concentrations. Binding kinetics were evaluated using a 1:1 Langmuir binding model. The ka, kd, and KD values were calculated using Biacore T200 evaluation software.

[2] = biological target: T2, human CD98 (hCD98) on cells (human, UniProt P08195 2-529); experiment: immunofluorescence on kidney sections of CD98 humanized mice (hCD98 ECD knock-in), FITC anti-human IgG secondary
T2 construct: also called CHO-hCD98; hCD98-expressing CHO cells
T2 sequence: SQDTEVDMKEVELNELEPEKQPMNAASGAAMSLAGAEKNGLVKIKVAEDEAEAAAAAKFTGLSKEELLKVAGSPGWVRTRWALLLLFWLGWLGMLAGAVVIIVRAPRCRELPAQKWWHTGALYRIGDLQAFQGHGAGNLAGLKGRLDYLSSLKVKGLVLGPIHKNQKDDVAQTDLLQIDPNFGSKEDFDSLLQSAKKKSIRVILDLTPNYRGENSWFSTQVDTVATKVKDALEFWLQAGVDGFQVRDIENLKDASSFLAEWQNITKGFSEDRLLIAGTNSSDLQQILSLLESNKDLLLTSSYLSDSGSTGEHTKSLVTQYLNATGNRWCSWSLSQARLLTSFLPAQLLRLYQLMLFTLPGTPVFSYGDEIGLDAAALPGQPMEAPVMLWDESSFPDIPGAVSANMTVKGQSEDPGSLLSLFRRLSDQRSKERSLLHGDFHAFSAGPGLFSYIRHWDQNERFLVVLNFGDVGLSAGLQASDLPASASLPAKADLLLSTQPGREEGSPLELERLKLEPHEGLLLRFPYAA

[3] = biological target: T3, hCD98 ECD-His6-Avi (human, UniProt P08195 105-529, biotinylated by BirA ligase on the Avi tag (form used in ELISA)); experiment: ELISA at pH 7.4 and pH 6.5 on hCD98 ECD-His6-Avi-Biotin
T3 construct: also called hCD98 ECD-His6-Avi-Biotin; not shown: His6-Avi tag
T3 sequence: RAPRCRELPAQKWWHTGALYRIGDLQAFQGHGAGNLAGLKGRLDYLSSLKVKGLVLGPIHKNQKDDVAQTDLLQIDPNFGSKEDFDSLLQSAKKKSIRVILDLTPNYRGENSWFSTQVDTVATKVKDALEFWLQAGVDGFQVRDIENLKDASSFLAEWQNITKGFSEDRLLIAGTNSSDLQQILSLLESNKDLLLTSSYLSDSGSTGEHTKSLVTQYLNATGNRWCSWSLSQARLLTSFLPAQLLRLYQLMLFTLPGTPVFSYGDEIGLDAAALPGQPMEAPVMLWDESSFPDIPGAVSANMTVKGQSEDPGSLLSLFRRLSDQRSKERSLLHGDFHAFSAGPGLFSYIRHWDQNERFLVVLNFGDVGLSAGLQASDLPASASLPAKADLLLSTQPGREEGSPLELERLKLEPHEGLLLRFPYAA

[4] = biological target: T3, hCD98 ECD-His6-Avi; experiment: ELISA at pH 6.5 on hCD98 ECD-His6-Avi-Biotin
[5] = biological target: T3, hCD98 ECD-His6-Avi; experiment: ELISA at pH 7.4 on hCD98 ECD-His6-Avi-Biotin
[6] = biological target: T3, hCD98 ECD-His6-Avi; experiment: ELISA at pH 6.5, biotinylated hCD98 ECD captured on streptavidin; pH 6.5
Method: (§2) For the ELISA-based analysis of antibody binding with antigen, biotinylated protein antigens were captured with streptavidin (Sigma-Aldrich) coated 96-well plates (Nunc, MaxiSorp™). Then, serially diluted antibodies were added, and detected by adding an HRP-labeled goat polyclonal anti-Human IgG Fc (Thermo Fisher Scientific).

[7] = biological target: T3, hCD98 ECD-His6-Avi; experiment: ELISA at pH 7.4, biotinylated hCD98 ECD captured on streptavidin; pH 7.4
Method: as §2

[8] = biological target: T4, HEK293T-mCD98 (Mus musculus, UniProt P10852); experiment: FACS on leukocytes of C57BL/6 mice, FITC anti-human IgG secondary
T4 construct: full length, on cells or tissue; Cell-surface counterpart of m7 (the soluble mCD98 ECD), as m5 is of m4; also called mouse CD98 (mCD98) on cells; CD98 of C57BL/6 kidney and leukocytes
T4 sequence (CD98 heavy chain, looked up): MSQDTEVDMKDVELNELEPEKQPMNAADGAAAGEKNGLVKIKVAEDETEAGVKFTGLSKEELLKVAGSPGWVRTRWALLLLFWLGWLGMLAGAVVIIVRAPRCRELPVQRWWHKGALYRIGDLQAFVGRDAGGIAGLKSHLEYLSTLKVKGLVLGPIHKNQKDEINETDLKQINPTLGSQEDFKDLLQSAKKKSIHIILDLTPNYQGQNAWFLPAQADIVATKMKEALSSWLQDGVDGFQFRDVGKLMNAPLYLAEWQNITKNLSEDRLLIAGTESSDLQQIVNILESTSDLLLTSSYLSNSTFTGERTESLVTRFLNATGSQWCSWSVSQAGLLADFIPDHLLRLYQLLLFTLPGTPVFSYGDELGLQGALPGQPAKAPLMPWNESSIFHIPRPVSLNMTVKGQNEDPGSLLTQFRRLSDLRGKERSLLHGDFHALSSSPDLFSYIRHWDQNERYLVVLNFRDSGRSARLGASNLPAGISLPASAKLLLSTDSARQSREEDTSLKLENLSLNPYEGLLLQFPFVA

[9] = biological target: T1, mouse CD98 (mCD98) ECD; experiment: SPR (Biacore T200), antibody captured, CD98 ECD as analyte; table cells 'n.m.'
Method: as §1

[10] = biological target: T3, hCD98 ECD-His6-Avi; experiment: SPR (Biacore T200), antibody captured, CD98 ECD as analyte, 1:1 Langmuir model
Method: as §1

[11] = biological target: T3, hCD98 ECD-His6-Avi; experiment: ELISA at pH 7.4 and pH 6.5 on hCD98 ECD
[12] = biological target: T3, hCD98 ECD-His6-Avi; experiment: ELISA, EC50 ratio pH 7.4/6.5 against that of S1-F4 Y97E
Method: as §2

[13] = biological target: T3, hCD98 ECD-His6-Avi; experiment: ELISA at pH 6.5, ratio of EC50 values against S1-F4 Y97E
[14] = biological target: T3, hCD98 ECD-His6-Avi; experiment: ELISA at pH 6.5, biotinylated hCD98 ECD captured on streptavidin
Method: as §2

[15] = biological target: T3, hCD98 ECD-His6-Avi; experiment: ELISA at pH 7.4, biotinylated hCD98 ECD captured on streptavidin, HRP anti-human IgG Fc
Method: as §2

[16] = biological target: T3, hCD98 ECD-His6-Avi; experiment: SPR (Biacore T200), antibody captured, hCD98 ECD as analyte
Method: as §1

[17] = biological target: T3, hCD98 ECD-His6-Avi; experiment: SPR (Biacore T200), antibody captured, hCD98 ECD as analyte, 1:1 Langmuir model
Method: as §1

B1: BC8 (antibody, V domains shown)
VH: EVQLVESGGGVVQPGRSLRLSCAASGFTVSNNYMSWVRQAPGKGLEWVSVIYSGGKTYYADSAKGRFTISRDNSKNTVFLQMNSLRVEDTAVYYCARVSGLGWFDPWGQGTLVTVSS
VL: not shown
notes: human IgG1 format by the methods (detected with anti-human IgG); also called anti-mouse CD98 antibody BC8; mCD98-specific Ab
[1]
  Kd: 86.1 nM
  koff: 0.00344 s⁻¹
  kon: 40000 M⁻¹ s⁻¹
[2]
  binding result: no binding (tested: 15 µg/ml)

B2: Ab8332 (antibody, V domains shown)
VH: QVQLVQSGAEVKKPGASVKVSCKASGYTFTSYQMHWVRQAPGQGLEWMGIINPSGGSTSYAQKFQGRVTMTRDTSTSTVYMELSSLRSEDTAVYYCARGYEDSNTHQHPIFFDIWGQGTMVTVSS
VL: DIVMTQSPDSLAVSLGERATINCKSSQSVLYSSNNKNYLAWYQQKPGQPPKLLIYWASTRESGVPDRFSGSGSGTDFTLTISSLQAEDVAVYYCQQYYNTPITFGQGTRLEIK
notes: human IgG1 format by the methods
[3]
  EC50 ratio (pH 7.4/6.5): 50.7
[4]
  EC50 (read off the curve): ~0.1 nM
[5]
  EC50 (read off the curve): ~5 nM

B3: H15L1 (antibody, human IgG1, V domains shown)
VH: QVQLVQSGAEVKKPGASVKVSCKASGYTFTSYQMHWVRQAPGQGLEWMGIINDKHGSTSYAQKFQGRVTMTRDTSTSTVYMELSSLRSEDTAVYYCARGYEDSNTHQHPIFFDIWGQGTMVTVSS
VL: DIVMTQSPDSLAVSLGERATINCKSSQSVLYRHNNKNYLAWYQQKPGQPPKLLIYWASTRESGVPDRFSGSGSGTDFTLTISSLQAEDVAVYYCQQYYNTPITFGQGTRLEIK
notes: as for B2
[3]
  EC50 ratio (pH 7.4/6.5): 11.8

B4: S1-F4 (antibody, V domains shown)
VH: QVQLVQSGAEVKKPGASVKVSCKASGYTFTSYYMHWVRQAPGQGLEWMGIINPSGGSTSYAQKFQGRVTMTRDTSTSTVYMELSSLRSEDTAVYYCARGYYDILTGSRPIFFDIWGQGTMVTVSS
VL: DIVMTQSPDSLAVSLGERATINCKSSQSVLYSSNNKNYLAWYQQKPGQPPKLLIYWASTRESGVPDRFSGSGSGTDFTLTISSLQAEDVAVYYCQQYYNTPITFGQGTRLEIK
notes: Obtained by VH chain shuffling of HN2-G9; also called anti-hCD98 antibody S1-F4
[6]
  EC50: 0.059 nM
[7]
  EC50: 0.046 nM
[8]
  binding result: no binding (tested: 10 µg/ml)
[9]
  binding result: no binding
[10]
  Kd: 58.2 nM
  koff: 0.0576 s⁻¹
  kon: 990000 M⁻¹ s⁻¹

B5: S1-F4 Y97E (antibody, V domains shown)
VH: QVQLVQSGAEVKKPGASVKVSCKASGYTFTSYYMHWVRQAPGQGLEWMGIINPSGGSTSYAQKFQGRVTMTRDTSTSTVYMELSSLRSEDTAVYYCARGYEDILTGSRPIFFDIWGQGTMVTVSS
VL: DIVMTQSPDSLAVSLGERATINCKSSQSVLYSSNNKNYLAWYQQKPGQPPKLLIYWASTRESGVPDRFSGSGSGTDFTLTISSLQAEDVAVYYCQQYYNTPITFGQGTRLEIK
notes: S1-F4 with Y97E in HCDR3; also called S1-F4 VH Y97E
[11]
  EC50 ratio (pH 7.4/6.5): 2.7
[6]
  EC50: 1.69 nM
[7]
  EC50: 4.53 nM

B6: H15L35 (antibody, human IgG1, V domains shown)
VH: QVQLVQSGAEVKKPGASVKVSCKASGYTFTSYQMHWVRQAPGQGLEWMGIINDKHGSTSYAQKFQGRVTMTRDTSTSTVYMELSSLRSEDTAVYYCARGYEDSNTHQHPIFFDIWGQGTMVTVSS
VL: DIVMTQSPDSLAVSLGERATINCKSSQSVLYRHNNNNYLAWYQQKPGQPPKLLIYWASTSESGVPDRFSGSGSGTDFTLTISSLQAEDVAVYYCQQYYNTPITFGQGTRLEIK
notes: as for B2
[3]
  EC50 ratio (pH 7.4/6.5): 16

B7: H15L54 (antibody, human IgG1, V domains shown)
VH: QVQLVQSGAEVKKPGASVKVSCKASGYTFTSYQMHWVRQAPGQGLEWMGIINDKHGSTSYAQKFQGRVTMTRDTSTSTVYMELSSLRSEDTAVYYCARGYEDSNTHQHPIFFDIWGQGTMVTVSS
VL: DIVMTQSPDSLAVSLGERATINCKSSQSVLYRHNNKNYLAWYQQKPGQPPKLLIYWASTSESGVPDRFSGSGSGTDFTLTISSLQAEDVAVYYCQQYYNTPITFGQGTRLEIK
notes: human IgG1 format by the methods; also called pH-dependent anti-hCD98 antibody H15L54
[11]
  EC50 ratio (pH 7.4/6.5): 38
[12]
  fold higher binding pH-dependence than S1-F4 Y97E: ~14 fold
[13]
  fold higher binding activity at pH 6.5 than S1-F4 Y97E: ~7 fold
[14]
  EC50: 0.247 nM
[15]
  EC50 (read off the curve): ~5 nM

B8: HN2-G9 (antibody, V domains shown)
VH: QVQLVQSGAEVKKPGSSVKVSCKASGYTFTSYYMHWVRQAPGQGLEWMGIINPSGGSTSYAQKFQGRVTMTRDTSTSTVYMELSSLRSEDTAVYFCARGYCSGGRCYSDFQHWGQGTLVTVSS
VL: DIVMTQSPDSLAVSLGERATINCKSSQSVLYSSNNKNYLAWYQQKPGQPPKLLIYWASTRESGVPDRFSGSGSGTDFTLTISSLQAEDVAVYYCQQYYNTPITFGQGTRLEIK
[16]
  Kd: 1290 nM
[17]
  koff: 0.102 s⁻¹
  kon: 787000 M⁻¹ s⁻¹

B9: IGN523 (antibody, V domains shown)
VH: QVQLVQSGAEVKKPGSSVKVSCKASGNAFTNYLIEWVRQAPGQGLEWMGVINPGSGITNYNEKFKGKATITADKSTSTAYMELSSLRSEDTAVYYCSGSANWFAYWGQGTLVTVSS
VL: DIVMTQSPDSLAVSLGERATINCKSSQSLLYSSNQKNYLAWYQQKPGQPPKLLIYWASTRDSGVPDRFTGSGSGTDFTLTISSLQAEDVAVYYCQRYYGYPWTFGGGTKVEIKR
[17]
  Kd: 0.722 nM
  koff: 0.000145 s⁻¹
  kon: 201000 M⁻¹ s⁻¹
